The supplement of paper PMC10065799, “High-throughput profiling of sequence recognition by tyrosine kinases and SH2 domains using bacterial peptide display” (eLife, 2023)

Experiments:
c-Src SH2 = assay: SH2 binding enrichment of the phosphorylated peptide, bacterial display (enrichment ratio); higher = better substrate or ligand; peptides without Tyr show the background
Grb2 SH2 = Grb2 SH2 (UniProt P62993); assay: as above
SHP2-C SH2 = assay: as above
c-Abl (mouse) = assay: phosphorylation enrichment, bacterial display (enrichment ratio); higher = better substrate or ligand; peptides without Tyr show the background
FGFR1 = FGFR1 (UniProt P11362); assay: as above
Sequence of FGFR1 (P11362 whole entry, looked up): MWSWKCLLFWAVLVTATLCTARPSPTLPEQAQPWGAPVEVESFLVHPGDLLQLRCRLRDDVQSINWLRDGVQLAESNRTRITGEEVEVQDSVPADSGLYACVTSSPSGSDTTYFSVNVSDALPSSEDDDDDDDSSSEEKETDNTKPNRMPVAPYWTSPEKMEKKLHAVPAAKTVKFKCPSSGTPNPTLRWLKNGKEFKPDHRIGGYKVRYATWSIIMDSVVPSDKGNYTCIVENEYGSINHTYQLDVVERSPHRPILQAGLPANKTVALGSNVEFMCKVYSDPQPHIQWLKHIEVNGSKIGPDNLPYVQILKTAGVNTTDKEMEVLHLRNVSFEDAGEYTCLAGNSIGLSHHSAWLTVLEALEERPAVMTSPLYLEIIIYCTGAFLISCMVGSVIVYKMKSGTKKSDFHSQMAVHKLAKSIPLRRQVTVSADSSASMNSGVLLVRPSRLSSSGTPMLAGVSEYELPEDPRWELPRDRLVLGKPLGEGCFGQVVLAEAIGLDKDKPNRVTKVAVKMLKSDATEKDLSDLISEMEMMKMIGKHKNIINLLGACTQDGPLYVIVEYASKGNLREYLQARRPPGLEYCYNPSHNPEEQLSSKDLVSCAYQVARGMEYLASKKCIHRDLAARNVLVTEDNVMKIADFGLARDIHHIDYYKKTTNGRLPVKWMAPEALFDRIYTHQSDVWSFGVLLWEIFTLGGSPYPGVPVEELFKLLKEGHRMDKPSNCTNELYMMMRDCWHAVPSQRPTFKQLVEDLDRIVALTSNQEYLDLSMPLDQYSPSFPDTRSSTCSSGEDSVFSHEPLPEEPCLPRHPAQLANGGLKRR

Hck = Hck (UniProt P08631); assay: as above
Sequence of Hck (P08631 whole entry, looked up): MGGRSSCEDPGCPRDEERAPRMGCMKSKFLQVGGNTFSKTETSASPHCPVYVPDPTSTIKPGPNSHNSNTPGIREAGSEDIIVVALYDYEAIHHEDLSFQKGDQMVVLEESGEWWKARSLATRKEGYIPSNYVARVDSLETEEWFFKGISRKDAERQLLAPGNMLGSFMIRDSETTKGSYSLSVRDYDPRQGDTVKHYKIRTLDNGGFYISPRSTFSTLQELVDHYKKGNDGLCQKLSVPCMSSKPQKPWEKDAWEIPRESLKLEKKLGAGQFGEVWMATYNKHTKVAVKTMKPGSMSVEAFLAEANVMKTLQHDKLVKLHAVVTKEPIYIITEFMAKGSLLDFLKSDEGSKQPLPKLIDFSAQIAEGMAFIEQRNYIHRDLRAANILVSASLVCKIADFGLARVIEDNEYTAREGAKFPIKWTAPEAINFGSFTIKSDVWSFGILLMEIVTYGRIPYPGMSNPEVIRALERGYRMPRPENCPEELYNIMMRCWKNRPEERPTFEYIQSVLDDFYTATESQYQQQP

Fes = Fes (UniProt P07332); assay: as above
FGFR3 = FGFR3 (UniProt P22607); assay: as above
EPHB1 = EPHB1 (UniProt P54762); assay: as above
Sequence of EPHB1 (P54762 whole entry, looked up): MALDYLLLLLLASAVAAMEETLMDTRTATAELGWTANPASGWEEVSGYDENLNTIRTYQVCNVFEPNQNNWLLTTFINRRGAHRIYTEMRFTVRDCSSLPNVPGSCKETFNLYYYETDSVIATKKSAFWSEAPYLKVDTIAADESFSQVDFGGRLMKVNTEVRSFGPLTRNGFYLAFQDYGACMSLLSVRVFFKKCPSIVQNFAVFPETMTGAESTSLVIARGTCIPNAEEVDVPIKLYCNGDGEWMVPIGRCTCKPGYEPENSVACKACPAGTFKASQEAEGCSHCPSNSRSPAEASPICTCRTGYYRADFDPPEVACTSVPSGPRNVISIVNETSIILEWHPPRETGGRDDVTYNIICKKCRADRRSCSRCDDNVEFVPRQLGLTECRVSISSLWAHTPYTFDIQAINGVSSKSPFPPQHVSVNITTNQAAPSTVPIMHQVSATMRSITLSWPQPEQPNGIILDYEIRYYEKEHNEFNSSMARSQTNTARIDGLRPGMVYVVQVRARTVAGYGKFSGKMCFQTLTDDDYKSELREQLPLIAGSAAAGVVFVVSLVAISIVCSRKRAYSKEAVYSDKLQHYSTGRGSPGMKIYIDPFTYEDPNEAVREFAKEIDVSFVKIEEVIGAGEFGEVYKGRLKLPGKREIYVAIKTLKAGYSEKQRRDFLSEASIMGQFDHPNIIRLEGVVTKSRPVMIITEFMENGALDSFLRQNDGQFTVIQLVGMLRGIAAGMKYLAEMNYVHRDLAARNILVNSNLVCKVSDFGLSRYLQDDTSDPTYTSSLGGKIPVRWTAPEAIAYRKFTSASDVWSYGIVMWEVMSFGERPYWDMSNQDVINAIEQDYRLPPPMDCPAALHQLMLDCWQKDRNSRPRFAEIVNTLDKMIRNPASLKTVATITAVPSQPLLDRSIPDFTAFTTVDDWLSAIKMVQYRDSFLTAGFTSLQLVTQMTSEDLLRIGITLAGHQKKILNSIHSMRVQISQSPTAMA

Fer (mouse) = assay: as above
Jak2 = Jak2 (UniProt O60674); assay: as above
Sequence of Jak2 (O60674 whole entry, looked up): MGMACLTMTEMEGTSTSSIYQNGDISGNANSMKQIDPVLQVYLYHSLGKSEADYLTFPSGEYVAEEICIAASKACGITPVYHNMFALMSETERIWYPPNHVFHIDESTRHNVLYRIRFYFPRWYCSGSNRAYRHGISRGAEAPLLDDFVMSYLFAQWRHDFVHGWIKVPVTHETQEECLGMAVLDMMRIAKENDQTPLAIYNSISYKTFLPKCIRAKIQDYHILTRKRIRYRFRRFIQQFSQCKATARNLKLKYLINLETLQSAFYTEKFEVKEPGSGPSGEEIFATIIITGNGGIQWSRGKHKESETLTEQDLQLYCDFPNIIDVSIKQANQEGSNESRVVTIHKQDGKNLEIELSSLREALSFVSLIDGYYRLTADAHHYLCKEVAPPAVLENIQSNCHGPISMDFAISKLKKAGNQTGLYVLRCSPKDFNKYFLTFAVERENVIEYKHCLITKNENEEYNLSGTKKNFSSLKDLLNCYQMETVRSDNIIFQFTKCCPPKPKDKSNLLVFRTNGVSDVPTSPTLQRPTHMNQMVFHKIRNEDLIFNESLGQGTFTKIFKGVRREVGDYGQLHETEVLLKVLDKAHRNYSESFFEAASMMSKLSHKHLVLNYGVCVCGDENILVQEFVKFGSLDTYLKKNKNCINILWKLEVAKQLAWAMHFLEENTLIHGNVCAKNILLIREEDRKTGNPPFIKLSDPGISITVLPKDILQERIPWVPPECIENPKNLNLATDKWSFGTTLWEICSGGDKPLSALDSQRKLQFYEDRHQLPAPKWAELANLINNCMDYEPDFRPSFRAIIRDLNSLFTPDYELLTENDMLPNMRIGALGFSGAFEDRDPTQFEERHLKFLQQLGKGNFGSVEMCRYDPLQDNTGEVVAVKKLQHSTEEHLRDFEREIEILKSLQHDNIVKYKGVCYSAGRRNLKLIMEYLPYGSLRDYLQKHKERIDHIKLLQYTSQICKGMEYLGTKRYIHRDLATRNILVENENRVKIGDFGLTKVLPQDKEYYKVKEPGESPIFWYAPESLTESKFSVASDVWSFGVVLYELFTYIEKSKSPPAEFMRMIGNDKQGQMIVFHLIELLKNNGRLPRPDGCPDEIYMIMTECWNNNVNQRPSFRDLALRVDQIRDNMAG

Fyn = Fyn (UniProt P06241); assay: as above
Sequence of Fyn (P06241 whole entry, looked up): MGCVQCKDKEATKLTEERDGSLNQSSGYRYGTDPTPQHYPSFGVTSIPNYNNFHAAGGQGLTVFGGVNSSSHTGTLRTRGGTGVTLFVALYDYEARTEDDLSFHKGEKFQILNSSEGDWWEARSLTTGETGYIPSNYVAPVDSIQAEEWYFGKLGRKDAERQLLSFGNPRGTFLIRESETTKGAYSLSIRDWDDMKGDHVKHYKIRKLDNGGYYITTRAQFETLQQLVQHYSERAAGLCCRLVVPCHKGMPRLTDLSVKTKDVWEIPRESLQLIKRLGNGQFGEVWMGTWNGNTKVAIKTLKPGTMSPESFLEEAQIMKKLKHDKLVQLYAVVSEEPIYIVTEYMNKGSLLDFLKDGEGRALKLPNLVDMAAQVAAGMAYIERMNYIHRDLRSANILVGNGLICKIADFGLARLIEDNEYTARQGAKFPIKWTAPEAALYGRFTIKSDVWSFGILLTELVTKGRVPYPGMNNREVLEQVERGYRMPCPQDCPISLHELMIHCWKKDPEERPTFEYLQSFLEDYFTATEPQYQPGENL

MERTK = MERTK (UniProt Q12866); assay: as above
Sequence of MERTK (Q12866 whole entry, looked up): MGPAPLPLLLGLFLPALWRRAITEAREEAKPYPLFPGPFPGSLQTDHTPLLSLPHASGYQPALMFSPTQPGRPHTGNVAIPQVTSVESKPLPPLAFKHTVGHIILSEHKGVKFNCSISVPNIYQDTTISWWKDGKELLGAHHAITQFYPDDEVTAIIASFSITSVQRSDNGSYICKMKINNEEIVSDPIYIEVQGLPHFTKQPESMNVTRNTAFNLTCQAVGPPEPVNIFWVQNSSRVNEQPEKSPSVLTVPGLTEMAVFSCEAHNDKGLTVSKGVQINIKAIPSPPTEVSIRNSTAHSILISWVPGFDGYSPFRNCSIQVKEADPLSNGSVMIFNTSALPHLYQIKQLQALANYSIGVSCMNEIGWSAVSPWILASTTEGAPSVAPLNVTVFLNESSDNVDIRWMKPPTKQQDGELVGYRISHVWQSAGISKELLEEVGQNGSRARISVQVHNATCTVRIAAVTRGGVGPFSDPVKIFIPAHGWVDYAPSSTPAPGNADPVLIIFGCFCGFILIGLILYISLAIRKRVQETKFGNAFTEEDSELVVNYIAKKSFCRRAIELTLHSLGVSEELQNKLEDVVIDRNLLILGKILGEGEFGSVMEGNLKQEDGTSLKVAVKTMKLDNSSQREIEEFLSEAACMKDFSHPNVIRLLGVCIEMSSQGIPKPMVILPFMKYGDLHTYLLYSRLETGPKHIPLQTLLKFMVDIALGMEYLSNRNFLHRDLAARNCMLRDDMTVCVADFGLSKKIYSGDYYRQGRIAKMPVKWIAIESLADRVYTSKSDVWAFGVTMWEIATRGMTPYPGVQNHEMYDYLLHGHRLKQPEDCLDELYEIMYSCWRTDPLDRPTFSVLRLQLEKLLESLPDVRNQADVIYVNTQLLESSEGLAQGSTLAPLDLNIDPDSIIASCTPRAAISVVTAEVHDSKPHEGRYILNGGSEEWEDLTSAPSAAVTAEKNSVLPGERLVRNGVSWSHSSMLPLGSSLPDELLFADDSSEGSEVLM

AncSZ = assay: as above
c-Src = assay: as above
EPHB2 = EPHB2 (UniProt P29323); assay: as above
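For SH2 binding enrichment of the phosphorylated peptide, bacterial display in this document: peptide library displayed on the E. coli surface as eCPX fusions, selected cells deep-sequenced, score is each peptide's frequency after selection divided by its frequency in the input.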
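For phosphorylation enrichment, bacterial display in this document: 11-residue human phosphosite peptides and single-mutation variants displayed on the E. coli surface, counted by deep sequencing, each peptide's frequency after selection divided by its frequency in the unselected input library; frequency after pTyr selection over input frequency; kinase dosed for 20-30% of maximal phosphorylation in three min.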

| Sequence | SH2 binding enrichment (c-Src SH2) | SH2 binding enrichment (Grb2 SH2) | SH2 binding enrichment (SHP2-C SH2) | phosphorylation enrichment (c-Abl (mouse)) | phosphorylation enrichment (FGFR1) | phosphorylation enrichment (Hck) | phosphorylation enrichment (Fes) | phosphorylation enrichment (FGFR3) | phosphorylation enrichment (EPHB1) | phosphorylation enrichment (Fer (mouse)) | phosphorylation enrichment (Jak2) | phosphorylation enrichment (Fyn) | phosphorylation enrichment (MERTK) | phosphorylation enrichment (AncSZ) | phosphorylation enrichment (c-Src) | phosphorylation enrichment (EPHB2) |
| --- | --- | --- | --- | --- | --- | --- | --- | --- | --- | --- | --- | --- | --- | --- | --- | --- |
| GNHISYYQSDG [CACNA1C_Y1757_V1755I] | 2.32 | 0.885 | 0.751 | 0.403 | 0.655 | 0.397 | 0.569 | 0.569 | 0.668 | 0.367 | 0.484 | 0.514 | 0.411 | 0.821 | 0.496 | 0.4 |
| GVSYIYTIDGS [DCX_Y105_R102S] | 0.726 | 0.794 | 16.3 | 0.663 | 0.494 | 2.71 | 1.08 | 0.711 | 0.618 | 0.412 | 0.944 | 5.77 | 1.28 | 1.11 | 4.85 | 0.498 |
| IMAFFYMCDSA [CASD1_Y382_R386S_YF] | 0.551 | 1.1 | 0.725 | 1.11 | 0.791 | 0.658 | 1.78 | 1.12 | 0.896 | 0.805 | 1.41 | 0.548 | 0.401 | 1.44 | 0.596 | 0.782 |
| LSSEMCVKSYT [F5_Y2149_Y2149C] | 0.451 | 0.665 | 0.452 | 1.59 | 1.23 | 0.877 | 1.76 | 1.04 | 1.54 | 1.46 | 2.4 | 1.2 | 1.1 | 1.55 | 1.16 | 0.888 |
| WSISFYPQVIM [CTNS_Y143] | 0.571 | 0.883 | 0.588 | 0.623 | 0.513 | 0.399 | 1.33 | 0.805 | 0.586 | 0.471 | 1.19 | 0.354 | 0.301 | 1.21 | 0.35 | 0.552 |
| PVQAAYPKVVA [HBB_Y131_Q132P] | 0.386 | 0.904 | 0.697 | 0.501 | 0.322 | 0.335 | 0.804 | 0.503 | 0.902 | 0.261 | 0.828 | 0.42 | 0.504 | 0.706 | 1 | 0.542 |
| MARDISRASFF [ALK_Y1278_Y1278S_YF] | 0.454 | 1.06 | 0.716 | 0.545 | 0.41 | 0.384 | 0.682 | 0.473 | 0.463 | 0.392 | 0.53 | 0.443 | 0.432 | 0.626 | 0.396 | 0.467 |
| CDLTDYLMKIL [ACTA1_Y190_R185C] | 0.664 | 0.973 | 0.647 | 0.83 | 0.476 | 0.587 | 1.7 | 1.02 | 0.791 | 0.541 | 1.13 | 0.478 | 0.416 | 1.39 | 0.394 | 0.75 |
| GGQSVYHVHLH [HINT1_Y109] | 0.897 | 1.19 | 0.904 | 0.581 | 0.495 | 0.686 | 0.77 | 0.532 | 0.476 | 0.455 | 0.629 | 0.865 | 0.434 | 0.619 | 1.01 | 0.487 |
| LAARFYNWVCF [FLT4_Y1231_S1235C_YF] | 1.02 | 1.04 | 0.982 | 1.39 | 1.65 | 0.967 | 2.8 | 2.11 | 1.33 | 2.79 | 2.59 | 0.849 | 1.17 | 1.87 | 1.21 | 1.03 |
| SVSNNYIQTLG [CTNND1_Y174] | 0.638 | 0.846 | 0.803 | 0.637 | 0.476 | 0.417 | 0.658 | 0.585 | 0.491 | 0.451 | 0.508 | 0.432 | 0.621 | 0.606 | 0.445 | 0.426 |
| EFNLMYDGAKE [IRF6_Y97_T100A] | 0.626 | 0.965 | 0.684 | 0.857 | 0.652 | 0.702 | 1.29 | 0.845 | 0.593 | 0.593 | 1.13 | 0.594 | 0.517 | 1.35 | 0.584 | 0.576 |
| RPIEVYLCPEE [E2F3_Y349_G344R] | 0.559 | 0.918 | 0.809 | 1.97 | 1.11 | 1.04 | 3.24 | 1.3 | 1.49 | 0.938 | 3.12 | 1.06 | 0.975 | 3.41 | 2.55 | 0.998 |
| IKSSIYDNRKE [ARAP2_Y380] | 0.445 | 0.934 | 0.741 | 0.518 | 0.538 | 0.753 | 0.725 | 0.504 | 0.307 | 0.355 | 0.586 | 0.366 | 0.416 | 1.13 | 0.58 | 0.321 |
| ASMAKYFASEI [ACADSB_Y372_YF] | 0.497 | 0.75 | 0.677 | 0.474 | 0.709 | 0.384 | 0.842 | 0.781 | 0.484 | 0.449 | 0.817 | 0.504 | 0.416 | 0.721 | 0.35 | 0.436 |
| VHFLVYHHHHH [CACNA1H_Y519_H516Y_YF] | 0.791 | 1.21 | 0.755 | 0.863 | 0.437 | 0.416 | 1.11 | 0.834 | 0.555 | 0.493 | 1.11 | 0.527 | 0.388 | 0.88 | 0.453 | 0.661 |
| KAIMIYVSSFF [ACTN4_Y260_T259I_YF] | 0.567 | 0.948 | 0.967 | 0.684 | 0.446 | 0.429 | 1.06 | 0.666 | 0.457 | 0.444 | 0.925 | 0.422 | 0.457 | 0.945 | 0.534 | 0.606 |
| VTNHIYTWVDP [DFNB31_Y234] | 1.05 | 1.14 | 0.956 | 0.711 | 3.77 | 3.06 | 2 | 3.33 | 2.73 | 10.2 | 0.87 | 4.26 | 7.06 | 2.57 | 3.2 | 1.63 |
| GEDDVYDSVPG [FGR_opt_2018] | 0.587 | 0.85 | 0.623 | 0.617 | 0.676 | 1.37 | 1.2 | 0.783 | 0.683 | 0.861 | 0.946 | 1.59 | 0.544 | 1.39 | 0.933 | 0.762 |
| GENTMYAQVFN [LY9_Y603] | 1.84 | 0.751 | 10.1 | 0.958 | 0.56 | 3.32 | 0.968 | 0.561 | 1.47 | 5.6 | 0.803 | 2.5 | 2.18 | 0.912 | 2.38 | 0.787 |

More lines, main results first:

| SH2 binding enrichment (c-Src SH2) | SH2 binding enrichment (Grb2 SH2) | SH2 binding enrichment (SHP2-C SH2) | Sequence | phosphorylation enrichment (c-Abl (mouse)) | phosphorylation enrichment (FGFR1) | phosphorylation enrichment (Hck) | phosphorylation enrichment (Fes) | phosphorylation enrichment (FGFR3) | phosphorylation enrichment (EPHB1) | phosphorylation enrichment (Fer (mouse)) | phosphorylation enrichment (Jak2) | phosphorylation enrichment (Fyn) | phosphorylation enrichment (MERTK) | phosphorylation enrichment (AncSZ) | phosphorylation enrichment (c-Src) | phosphorylation enrichment (EPHB2) |
| --- | --- | --- | --- | --- | --- | --- | --- | --- | --- | --- | --- | --- | --- | --- | --- | --- |
| 0.374 | 0.774 | 0.867 | EPAVLYNLKDR [MYH7_Y103] | 0.571 | 0.521 | 0.662 | 0.835 | 0.539 | 0.411 | 0.455 | 0.585 | 0.583 | 0.473 | 0.722 | 0.461 | 0.537 |
| 3.48 | 1.27 | 1.79 | CTTTHYNFMCN [TP53_Y234_I232T_YF] | 0.484 | 0.403 | 0.469 | 0.758 | 0.557 | 0.397 | 0.466 | 0.561 | 0.437 | 0.393 | 0.758 | 0.375 | 0.427 |
| 0.766 | 1.16 | 0.625 | PFWKLYESVKK [MKI67_Y241] | 1.07 | 0.52 | 4.34 | 1.39 | 0.703 | 6.75 | 1.8 | 1.58 | 1.03 | 0.966 | 1 | 1.58 | 2.31 |
| 0.604 | 0.912 | 0.502 | YDGKEYDPVEA [MAPRE2_Y167] | 0.935 | 0.535 | 0.567 | 1.42 | 0.836 | 0.772 | 0.621 | 1.22 | 0.556 | 0.497 | 1.21 | 0.645 | 0.637 |
| 9.21 | 1.75 | 4.45 | CTTIHYNYICN [TP53_Y234_M237I] | 0.519 | 0.587 | 0.521 | 0.91 | 0.654 | 0.513 | 0.654 | 0.682 | 0.457 | 0.518 | 0.864 | 0.532 | 0.505 |
| 0.505 | 0.852 | 0.735 | NNRVFYGNSDR [RS1_Y177] | 0.499 | 0.375 | 0.337 | 0.536 | 0.411 | 0.284 | 0.338 | 0.546 | 0.395 | 0.315 | 0.437 | 0.414 | 0.378 |
| 0.387 | 0.733 | 0.719 | KHMADYPDFKF [SOX11_Y113_YF] | 0.591 | 0.62 | 0.391 | 0.84 | 0.701 | 0.503 | 0.434 | 0.669 | 0.502 | 0.398 | 0.745 | 0.386 | 0.496 |
| 0.714 | 0.9 | 0.538 | EEGNPYYSGAR [MCCC2_Y520_S523G] | 0.597 | 0.542 | 1.01 | 0.917 | 0.552 | 0.409 | 0.425 | 0.719 | 0.959 | 0.449 | 0.898 | 1.83 | 0.551 |
| 1 | 0.986 | 0.95 | LGRTRYQDVTG [MIPEP_Y510_H512D] | 0.799 | 0.525 | 0.336 | 0.735 | 0.665 | 0.62 | 0.563 | 0.888 | 0.586 | 0.722 | 0.899 | 0.584 | 0.548 |
| 0.445 | 1 | 0.656 | PLLTDYSPQLQ [OTC_Y345_S340P] | 1.02 | 1.19 | 0.951 | 1.9 | 1.19 | 1.11 | 0.879 | 0.964 | 0.698 | 0.965 | 1.54 | 0.616 | 1.17 |
| 0.404 | 0.69 | 0.585 | ITQRAYRRHLL [SCN1A_Y1926_I1922T] | 0.547 | 0.442 | 0.457 | 0.557 | 0.48 | 0.427 | 0.403 | 0.573 | 0.444 | 0.585 | 0.63 | 0.622 | 0.417 |
| 0.478 | 0.933 | 0.515 | RPFFLYVAFHN [SGSH_Y174_D179N] | 0.472 | 0.564 | 0.327 | 0.918 | 0.837 | 0.74 | 0.405 | 0.762 | 0.321 | 0.453 | 1.04 | 0.33 | 0.491 |
| 0.656 | 1.03 | 0.809 | MSRDVYSIDFF [NTRK2_Y702_T704I_YF] | 0.652 | 1.61 | 4.17 | 1.05 | 1.2 | 1.23 | 1.16 | 0.889 | 8.38 | 7.45 | 1.02 | 6.79 | 1.17 |
